Source: US6090388
Read-outs that look alike come from different tables or passages of the source.

Columns and labels:
[1] = target: human CD4 on the surface of CD4-expressing T cells (human)
[2] = target: human CD4 on the surface of CD4-expressing T cells (human); remark: listed apart in the source
[3] = target: human CD4 on the surface of CD4-expressing T cells (human); assay: IFA on MT2 T cells
[4] = target: human CD4 on the surface of CD4-expressing T cells (human); assay: B4-biotin + FITC-avidin on MT2 T cells after medium alone
[5] = target: gp120 of HIV-1 primary isolate TH036 (clade E) (HIV-1)
[6] = target: gp120 of HIV-1 primary isolate UG029 (clade A) (HIV-1)
[7] = target: gp120 of HIV-1 primary isolate UG266 (clade D) (HIV-1)
[8] = target: gp120 of HIV-1 primary isolate VL 135 (clade B) (HIV-1)
[9] = target: gp120 of HIV-1 primary isolate ZIM 748 (clade C) (HIV-1)

Substance	% Pos cells [1] [%]	90% neutralization, MT-2 microplaque assay, HIV-1 DH12 (clade B) [2] [µg/mL]	90% neutralization, MT-2 microplaque assay, HIV-1 TH036 (clade E) [2] [µg/mL]	90% neutralization, MT-2 microplaque assay, HIV-1 UG266 (clade D) [2] [µg/mL]	90% neutralization, MT-2 microplaque assay, HIV-1 UGO29 (clade A) [2] [µg/mL]	90% neutralization, MT-2 microplaque assay, HIV-1 VL 135 (clade B) [2] [µg/mL]	90% neutralization, MT-2 microplaque assay, HIV-1 ZIM 748 (clade C) [2] [µg/mL]	% Pos cells [3] [%]	% Pos cells [4] [%]	90% neutralization, MT-2 microplaque assay, HIV-1 TH036 [5] [µg/mL]	90% neutralization, MT-2 microplaque assay, HIV-1 UGO29 [6] [µg/mL]	90% neutralization, MT-2 microplaque assay, HIV-1 UG266 [7] [µg/mL]	90% neutralization, MT-2 microplaque assay, HIV-1 VL 135 [8] [µg/mL]	90% neutralization, MT-2 microplaque assay, HIV-1 ZIM 748 [9] [µg/mL]
monoclonal antibody B4	0	2.1	3.32	25.6	6.76	1.54	2.82	> 95	> 95	–	–	–	–	–
recombinant human monoclonal antibody IgG1 b12	–	–	–	–	–	–	–	–	–	> 50	38.5	> 50	41.7	> 50
